The target of this test is T1, JUNO (mouse (endogenous in mouse oocytes)) (UniProt Q9EQF4).
T1 sequence: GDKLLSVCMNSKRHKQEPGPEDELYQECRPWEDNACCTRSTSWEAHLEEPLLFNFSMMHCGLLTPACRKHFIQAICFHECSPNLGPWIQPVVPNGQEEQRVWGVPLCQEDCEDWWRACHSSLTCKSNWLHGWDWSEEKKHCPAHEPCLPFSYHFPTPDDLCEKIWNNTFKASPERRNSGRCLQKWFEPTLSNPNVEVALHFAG

B1: IZUMO1 (natural protein)
chain: CIKCDQFVTDALKTFENTYLNDHLPHDIHKNVMRMVNHEVSSFGVVTSAEDSYLGAVDENTLEQATWSFLKDLKRITDSDLKGELFIKELLWMLRHQKDIFNNLARQFQKEVLCPNKCGVMSQTLIWCLKCEKQLHICRKSLDCGERHIEVHRSEDLVLDCLLSWHRASKGLTDYSFYRVWENSSETLIAKGKEPYLTKSMVGPEDAGNYRCVLDTINQGHATVIRYDVTVLPPKHSEENQPPNIITQEEHETPVHVTPQTPPGQEPESELYPELHPELYPELIPTVAQNPEKKMKTRLLILLTLGFVVLVASIIISVLHFRKVSAKLKNASDEVKPTASGSKSDQSLSQQMGLKKASQADFNSDYSGDKSEATEN
For the molecule B1, the cell-oocyte binding assay: IZUMO1-expressing cultured cells bound per ZP-free oocyte (FIMP-expressing cells could not bind) (cells per oocyte) came out at 4; the cell-oocyte binding assay: transfected HEK293T cells coexpressing IZUMO1 and FIMP, bound per oocyte (coexpression of FIMP did not enhance the binding) (cells per oocyte) amounted to 4.1; the cell-oocyte binding assay: transfected HEK293T cells expressing IZUMO1 alone, bound per oocyte (cells per oocyte) was 4.5.
